# Patent US12636342B2, “TARS derived from Akkermansia muciniphila or fragment thereof, and use thereof” (KOREA RESEARCH INSTITUTE OF BIOSCIENCE AND BIOTECHNOLOGY, priority 2020, dated 2026)
# B1: Akkermansia muciniphila-derived threonyl-tRNA synthetase (TARS) (protein)
# chain: MSEHKERKTLEERQQMSDLERLRHSCAHVLATAICRLWPDAQLAGGPAVDNGFYYDVELDHRISTEDFERIEEEMKKVVKENQVFQKEVISRADAMKMAESGELGALGPRSEPSRFKIDLLNDIPEDEEISLYRNGDFTDLCAGPHVGRTGNCKAFKIMSVASAFYKGDKNRPMLQRIYGTCFPNRTQLDEHLERLEEARRRDHRKLGRELGLFCIDESVGQGLILWKPKGALIRRSLQDFITEELDKLGYSQVYTPNIGKLDLYRTSGHFPYYQESQYAPIPERDAMEKLSQEGASCAELFNGLATGTIEGYMLKPMNCPHHIKIYANDAHSYRDLPVRLAEFGTVYRWEQSGELGGMTRVRGFTQDDAHIFCTPDQLAGEIRQCLGIVKTIFGTLGMTDYRVRLSMRDPESDKYVGSPENWDKAEQALREAAEWLGADYSEEAGEAAFYGPKIDFIVRDAIGREWQLGTVQVDYNLPERFDLHYTGADNKPHRPVMVHRAPFGSMERFTGLLIEHFEGKFPTWLSPEQVRVLPISDKVTDVAAAHRTALAARGVRVTVDETPDKIGAKIRNARLDRVPYMLVLGQREAEDGTVSVRHRDKGDLGAMPFEQFADLVAREIAERHISPVI
# modifications: Akkermansia muciniphila TARS
# Test system: THP1 cells
# Experiment: Immunoblotting of AmTARS/TLR2-induced signaling molecules in THP1 cells
# Format: cell-based, human
# Experimental: (A and B) Analysis of key molecules that inhibit the MAPK and PI3K/AKT signaling pathways. IL-10 produced by BMDMs pre-treated with inhibitors of ERK (PD98059, […]), p38 (SB203580, […]), MSK1/2 (SB747651A, 10 μM), CREB (666-15, 1 μM), PI3K (Wortmannin, 10 μM), and AKT1/2 (AKT1/2, 10 μM) for 1 h before treatment with either PBS or AmTARS for 24 h (n=6 per group) (A). Flow cytometry analysis of M2 macrophages in BMDMs pre-treated for 1 h with the indicated kinase inhibitors, before treatment with either PBS or AmTARS for 24 h (n=3 per group) (B). (C and D) Western blot analysis of MAPK signaling molecules in lysates of BMDMs (C) or THP1 cells (D) treated for different times with 0.5 μM AmTARS. (E) Western blot analysis of lysates of BMDMs pre-treated with α-IgG (Isotype, 1 μg ml-1) or α-TLR2 (1 μg ml-1) for 1 h before treatment with PBS, AmTARS (0.5 μM), or Pam3 (0.5 μM) for 30 min. (F and G) Western blot analysis of PI3K/AKT signaling molecules in lysates of BMDMs (F) or THP1 cells (G) treated with 0.5 μM AmTARS. (H) AmTARS activates both TLR2/1- and TLR2/6-mediated signaling. Activation of AKT, ERK, and CREB was measured by western blot analysis of lysates of THP1 cells pre-treated with α-IgG, α-TLR1, α-TLR2, or α-TLR6 (1 μg ml-1) for 1 h before treatment for 30 min with PBS or AmTARS (0.5 µM). Data shown in (A and B) are representative of three independent experiments, each with similar results (mean±SEM). P-values were calculated using an unpaired two-tailed Student's t-test. Data shown in (C-H) are representative and repeated at least three times.
# Subsequently, we conducted immunoblotting assays to measure the time-dependent activation of AmTARS/TLR2-induced signaling molecules in both BMDMs and THP1 cells. AmTARS rapidly activated ERK, p38, and MSK1/2 within 15 min and, subsequently, phosphorylation of CREB at Ser133 (which is essential for IL-10 production) within 30 min in BMDMs (FIG. 31C) and THP1 cells (FIG. 31D). We then compared AmTARS-triggered TLR2 signaling with typical ligand-triggered signaling using Pam3CSK4 (the synthetic canonical TLR2/1 agonist, referred to hereafter as Pam3) in BMDMs stimulated for 30 min. […] By contrast, activation of NF-κB was greater in Pam3-treated BMDMs than in AmTARS-treated BMDMs (FIG. 31E).
molecule,measurement,setting,value
B1,time to activation of AKT,0.5 μM AmTARS,≤ 15 min
same,time to activation of ERK,0.5 μM AmTARS,≤ 15 min
same,time to activation of MSK1/2,0.5 μM AmTARS,≤ 15 min
same,time to activation of PI3K,0.5 μM AmTARS,≤ 15 min
same,time to activation of p38,0.5 μM AmTARS,≤ 15 min
same,time to inhibition of GSK3β activity (phosphorylation at Ser9),0.5 μM AmTARS,≤ 15 min
same,time to phosphorylation of CREB at Ser133,0.5 μM AmTARS,≤ 30 min
same,"AmTARS-induced TLR2 signaling (AKT, ERK, CREB) after antibody pre-treatment","α-TLR1, α-TLR2 or α-TLR6 1 μg ml-1 1 h, then AmTARS 0.5 μM 30 min","shut down by antibodies targeting TLR1, TLR6, and TLR2"
